Measurements as given in US20060067886A1, “Gastrin receptor-avid peptide conjugates” (priority 1997, published 2006).

Assay: Biodistribution of radiometal-DOTA-BBN conjugates in CF1 normal mice
Conditions: 1 hour post-injection; for tissue uptake dose at 1 h / dose excreted at 1 h / tissue uptake at 1 h: CF-1, mouse, in vivo, iv, total radioactivity; for tissue uptake dose at 1 h / dose excreted at 1 h: Avg % ID; for dose excreted at 1 h: Urine; for tissue uptake at 1 h: Avg % ID/gm

SMILES: CSCC[C@H](NC(=O)[C@H](CC(C)C)NC(=O)[C@H](Cc1cnc[nH]1)NC(=O)CNC(=O)[C@@H](NC(=O)[C@H](C)NC(=O)[C@H](Cc1c[nH]c2ccccc12)NC(=O)[C@H](CCC(N)=O)NC(=O)CN1CCN(CC(=O)O)CCN(CC(=O)O)CCN(CC(=O)O)CC1)C(C)C)C(N)=O [111In-DOTA-0-BBN[7-14]NH2, metal not drawn]
- tissue uptake dose at 1 h (Blood): 0.22 ± 0.07 %ID
- tissue uptake dose at 1 h (Heart): 0.01 %ID
- tissue uptake dose at 1 h (Kidney): 0.57 ± 0.02 %ID
- tissue uptake dose at 1 h (Liver): 0.17 ± 0.02 %ID
- tissue uptake dose at 1 h (Lung): 0.03 %ID
- tissue uptake dose at 1 h (Muscle): 0.01 %ID
- tissue uptake dose at 1 h (Pancreas): 0.07 ± 0.01 %ID
- tissue uptake dose at 1 h (Spleen): 0.01 %ID
- dose excreted at 1 h: 96.95 ± 0.37%
- tissue uptake at 1 h (Heart): 0.05 ± 0.02 %ID/g
- tissue uptake at 1 h (Kidney): 1.24 ± 0.14 %ID/g
- tissue uptake at 1 h (Liver): 0.09 ± 0.01 %ID/g
- tissue uptake at 1 h (Lung): 0.13 ± 0.03 %ID/g
- tissue uptake at 1 h (Pancreas): 0.2 ± 0.04 %ID/g
- tissue uptake at 1 h (Spleen): 0.08 ± 0.02 %ID/g

SMILES: CSCC[C@H](NC(=O)[C@H](CC(C)C)NC(=O)[C@H](Cc1cnc[nH]1)NC(=O)CNC(=O)[C@@H](NC(=O)[C@H](C)NC(=O)[C@H](Cc1c[nH]c2ccccc12)NC(=O)[C@H](CCC(N)=O)NC(=O)CN1CCN(CC(=O)O)CCN(CC(=O)O)CCN(CC(=O)O)CC1)C(C)C)C(N)=O [111In-DOTA-0-BBN[7-14]NH2] [metal not drawn]
- Avg % ID, Carcass: 1.78 ± 0.37 % ID
- Avg % ID, L. Intestine: 0.10 ± 0.02 % ID
- Avg % ID, S. Intestine: 0.25 ± 0.04 % ID
- Avg % ID/gm, Blood: 0.10 ± 0.03 % ID/gm
- Avg % ID/gm, Muscle: 0.03 ± 0.02 % ID/gm
- Avg % ID/gm, S. Intestine: 0.44 ± 0.64 % ID/gm
- Avg % ID/gm, Stomach: 0.06 ± 0.03 % ID/gm

SMILES: CSCC[C@H](NC(=O)[C@H](CC(C)C)NC(=O)[C@H](Cc1c[nH]cn1)NC(=O)CNC(=O)[C@@H](NC(=O)[C@H](C)NC(=O)[C@H](Cc1c[nH]c2ccccc12)NC(=O)[C@H](CCC(N)=O)NC(=O)CCCCNC(=O)CN1CCN(CC(=O)O)CCN(CC(=O)O)CCN(CC(=O)O)CC1)C(C)C)C(N)=O [111In-DOTA-5-Ava-BBN[7-14]NH2, metal not drawn]
- tissue uptake dose at 1 h (Blood): 0.45 ± 0.14 %ID
- tissue uptake dose at 1 h (Kidney): 0.75 ± 0.14 %ID
- tissue uptake dose at 1 h (L. Intestine): 2.74 ± 0.8 %ID
- tissue uptake dose at 1 h (Pancreas): 5.57 ± 0.99 %ID
- dose excreted at 1 h: 81.3 ± 1.32%
- tissue uptake at 1 h (Blood): 0.2 ± 0.07 %ID/g
- tissue uptake at 1 h (Kidney): 1.84 ± 0.44 %ID/g
- tissue uptake at 1 h (L. Intestine): 3.07 ± 0.86 %ID/g
- tissue uptake at 1 h (Pancreas): 15.8 ± 2.54 %ID/g

SMILES: CSCC[C@H](NC(=O)[C@H](CC(C)C)NC(=O)[C@H](Cc1c[nH]cn1)NC(=O)CNC(=O)[C@@H](NC(=O)[C@H](C)NC(=O)[C@H](Cc1c[nH]c2ccccc12)NC(=O)[C@H](CCC(N)=O)NC(=O)CCCCNC(=O)CN1CCN(CC(=O)O)CCN(CC(=O)O)CCN(CC(=O)O)CC1)C(C)C)C(N)=O [111In-DOTA-5-Ava-BBN[7-14]NH2] [metal not drawn]
- Avg % ID, Carcass: 3.15 ± 0.70 % ID
- Avg % ID, Heart: 0.02 ± 0.01 % ID
- Avg % ID, Liver: 0.26 ± 0.03 % ID
- Avg % ID, Lung: 0.04 ± 0.01 % ID
- Avg % ID, Muscle: 0.01 ± 0.01 % ID
- Avg % ID, S. Intestine: 0.11 ± 0.04 % ID
- Avg % ID, Spleen: 0.11 ± 0.04 % ID
- Avg % ID, Stomach: 0.37 ± 0.16 % ID
- Avg % ID/gm, Heart: 0.10 ± 0.04 % ID/gm
- Avg % ID/gm, Liver: 0.16 ± 0.02 % ID/gm
- Avg % ID/gm, Muscle: 0.05 ± 0.02 % ID/gm
- Avg % ID/gm, S. Intestine: 3.49 ± 0.87 % ID/gm
- Avg % ID/gm, Spleen: 0.87 ± 0.28 % ID/gm
- Avg % ID/gm, Stomach: 0.71 ± 0.24 % ID/gm

SMILES: CSCC[C@H](NC(=O)[C@H](CC(C)C)NC(=O)[C@H](Cc1c[nH]cn1)NC(=O)CNC(=O)[C@@H](NC(=O)[C@H](C)NC(=O)[C@H](Cc1c[nH]c2ccccc12)NC(=O)[C@H](CCC(N)=O)NC(=O)CCCCCCCCCCNC(=O)CN1CCN(CC(=O)O)CCN(CC(=O)O)CCN(CC(=O)O)CC1)C(C)C)C(N)=O [111In-DOTA-11-Aun-BBN[7-14]NH2, metal not drawn]
- tissue uptake dose at 1 h (Blood): 0.79 ± 0.2 %ID
- tissue uptake dose at 1 h (Carcass): 7.35 ± 1.57 %ID
- tissue uptake dose at 1 h (Kidney): 1.07 ± 0.17 %ID
- tissue uptake dose at 1 h (L. Intestine): 5.54 ± 2.42 %ID
- tissue uptake dose at 1 h (Liver): 2.44 ± 0.5 %ID
- tissue uptake dose at 1 h (Pancreas): 11.6 ± 1.14 %ID
- tissue uptake dose at 1 h (S. Intestine): 17.8 ± 1.4 %ID
- tissue uptake dose at 1 h (Spleen): 0.19 ± 0.04 %ID
- tissue uptake dose at 1 h (Stomach): 0.53 ± 0.11 %ID
- dose excreted at 1 h: 53.3 ± 0.9%
- tissue uptake at 1 h (L. Intestine): 4.34 ± 1.34 %ID/g
- tissue uptake at 1 h (Liver): 1.22 ± 0.25 %ID/g
- tissue uptake at 1 h (Pancreas): 26 ± 3.46 %ID/g
- tissue uptake at 1 h (S. Intestine): 11.1 ± 2.07 %ID/g
- tissue uptake at 1 h (Spleen): 1.15 ± 0.38 %ID/g
- tissue uptake at 1 h (Stomach): 1.05 ± 0.25 %ID/g

SMILES: CSCC[C@H](NC(=O)[C@H](CC(C)C)NC(=O)[C@H](Cc1c[nH]cn1)NC(=O)CNC(=O)[C@@H](NC(=O)[C@H](C)NC(=O)[C@H](Cc1c[nH]c2ccccc12)NC(=O)[C@H](CCC(N)=O)NC(=O)CCCCCCCCCCNC(=O)CN1CCN(CC(=O)O)CCN(CC(=O)O)CCN(CC(=O)O)CC1)C(C)C)C(N)=O [111In-DOTA-11-Aun-BBN[7-14]NH2] [metal not drawn]
- Avg % ID, Heart: 0.02 ± 0.01 % ID
- Avg % ID, Lung: 0.08 ± 0.01 % ID
- Avg % ID, Muscle: 0.02 ± 0.01 % ID
- Avg % ID/gm, Blood: 0.34 ± 0.08 % ID/gm
- Avg % ID/gm, Heart: 0.13 ± 0.04 % ID/gm
- Avg % ID/gm, Kidney: 2.06 ± 0.31 % ID/gm
- Avg % ID/gm, Lung: 0.26 ± 0.05 % ID/gm
- Avg % ID/gm, Muscle: 0.09 ± 0.03 % ID/gm

SMILES: CSCC[C@H](NC(=O)[C@H](CC(C)C)NC(=O)[C@H](Cc1cnc[nH]1)NC(=O)CNC(=O)[C@@H](NC(=O)[C@H](C)NC(=O)[C@H](Cc1c[nH]c2ccccc12)NC(=O)[C@H](CCC(N)=O)NC(=O)CCNC(=O)CN1CCN(CC(=O)O)CCN(CC(=O)O)CCN(CC(=O)O)CC1)C(C)C)C(N)=O [111In-DOTA-β-Ala-BBN[7-14]NH2, metal not drawn]
- tissue uptake dose at 1 h (Blood): 0.23 ± 0.1 %ID
- tissue uptake dose at 1 h (Carcass): 2.23 ± 0.36 %ID
- tissue uptake dose at 1 h (Kidney): 0.62 ± 0.1 %ID
- tissue uptake dose at 1 h (Liver): 0.17 ± 0.03 %ID
- tissue uptake dose at 1 h (Lung): 0.03 ± 0.02 %ID
- tissue uptake dose at 1 h (Stomach): 0.13 ± 0.02 %ID
- dose excreted at 1 h: 92.41 ± 0.9%
- tissue uptake at 1 h (Blood): 0.11 ± 0.06 %ID/g
- tissue uptake at 1 h (Kidney): 1.4 ± 0.27 %ID/g
- tissue uptake at 1 h (Liver): 0.11 ± 0.02 %ID/g
- tissue uptake at 1 h (Stomach): 0.3 ± 0.07 %ID/g

SMILES: CSCC[C@H](NC(=O)[C@H](CC(C)C)NC(=O)[C@H](Cc1cnc[nH]1)NC(=O)CNC(=O)[C@@H](NC(=O)[C@H](C)NC(=O)[C@H](Cc1c[nH]c2ccccc12)NC(=O)[C@H](CCC(N)=O)NC(=O)CCNC(=O)CN1CCN(CC(=O)O)CCN(CC(=O)O)CCN(CC(=O)O)CC1)C(C)C)C(N)=O [111In-DOTA-β-Ala-BBN[7-14]NH2] [metal not drawn]
- Avg % ID, Heart: 0.01 ± 0.01 % ID
- Avg % ID, L. Intestine: 0.90 ± 0.57 % ID
- Avg % ID, Muscle: 0.01 ± 0.01 % ID
- Avg % ID, Pancreas: 1.84 ± 0.35 % ID
- Avg % ID, S. Intestine: 1.57 ± 0.65 % ID
- Avg % ID, Spleen: 0.05 ± 0.00 % ID
- Avg % ID/gm, Heart: 0.06 ± 0.04 % ID/gm
- Avg % ID/gm, L. Intestine: 1.10 ± 0.78 % ID/gm
- Avg % ID/gm, Muscle: 0.03 ± 0.02 % ID/gm
- Avg % ID/gm, Pancreas: 4.92 ± 0.37 % ID/gm
- Avg % ID/gm, S. Intestine: 1.01 ± 0.37 % ID/gm
- Avg % ID/gm, Spleen: 0.37 ± 0.06 % ID/gm

SMILES: CSCC[C@H](NC(=O)[C@H](CC(C)C)NC(=O)[C@H](Cc1cnc[nH]1)NC(=O)CNC(=O)[C@@H](NC(=O)[C@H](C)NC(=O)[C@H](Cc1c[nH]c2ccccc12)NC(=O)[C@H](CCC(N)=O)NC(=O)CN1CCN(CC(=O)O)CCN(CC(=O)O)CCN(CC(=O)O)CC1)C(C)C)C(N)=O [149Pm-DOTA-0-BBN[7-14]NH2]
- Avg % ID, Blood: 0.00 ± 0.00 % ID
- Avg % ID, Carcass: 1.98 ± 2.27 % ID
- Avg % ID, Heart: 0.00 ± 0.00 % ID
- Avg % ID, Kidney: 0.34 ± 0.28 % ID
- Avg % ID, L. Intestine: 0.01 ± 0.02 % ID
- Avg % ID, Liver: 0.16 ± 0.15 % ID
- Avg % ID, Lung: 0.00 ± 0.00 % ID
- Avg % ID, Muscle: 0.00 ± 0.00 % ID
- Avg % ID, Pancreas: 0.07 ± 0.01 % ID
- Avg % ID, S. Intestine: 0.38 ± 0.25 % ID
- Avg % ID, Spleen: 0.00 ± 0.00 % ID
- Avg % ID, Stomach: 0.02 ± 0.05 % ID
- Avg % ID/gm, Blood: 0.00 ± 0.00 % ID/gm
- Avg % ID/gm, Heart: 0.00 ± 0.00 % ID/gm
- Avg % ID/gm, Kidney: 1.04 ± 0.90 % ID/gm
- Avg % ID/gm, L. Intestine: 0.01 ± 0.03 % ID/gm
- Avg % ID/gm, Liver: 0.12 ± 0.10 % ID/gm
- Avg % ID/gm, Lung: 0.00 ± 0.00 % ID/gm
- Avg % ID/gm, Muscle: 0.00 ± 0.00 % ID/gm
- Avg % ID/gm, Pancreas: 0.00 ± 0.00 % ID/gm
- Avg % ID/gm, S. Intestine: 0.27 ± 0.17 % ID/gm
- Avg % ID/gm, Spleen: 0.00 ± 0.00 % ID/gm
- Avg % ID/gm, Stomach: 0.04 ± 0.08 % ID/gm
